Measured values reported in PMC3413123.

Tests used:
[1] = molecular target: ParGβCopG (UniProt Q9KJ82); assay: cross-linking
[2] = molecular target: ParGβMetJ (UniProt Q9KJ82); assay: cross-linking

| Substance | stoichiometry N [1] | stoichiometry N [2] |
| --- | --- | --- |
| ParGβCopG (from UniProt Q9KJ82 1-76) | 2 | – |
| ParGβMetJ (from UniProt Q9KJ82 1-76) | – | 2 |
